According to patent US20200157194A1 (Regeneron, published 2020):
Several values for one entry are separate records, joined by “and”; a condition that tells them apart may be missing. Equal entries are not always repeated. Where two headings read alike, the source gives them in different places.

Assays:
Test in all cases: cell-based or functional assay
[1] = biological target: recombinant human BMP4 (hBMP4; R&D, #314-BP/CF) (human)
[2] = biological target: recombinant human BMP4 (hBMP4; R&D, #314-BP/CF) (human); remark: listed apart in the source
[3] = biological target: recombinant human BMP4 (hBMP4; R&D, #314-BP/CF) (human); remark: listed apart in the source

Chain of recombinant human BMP4 (hBMP4; R&D, #314-BP/CF) (human) (P12644 293-408): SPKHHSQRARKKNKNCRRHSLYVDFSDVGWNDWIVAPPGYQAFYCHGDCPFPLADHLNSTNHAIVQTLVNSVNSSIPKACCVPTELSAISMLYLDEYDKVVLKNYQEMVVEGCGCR

hGrem1-His IC50 (nM), inhibition of 100 pM hBMP4, W-20-17/BRE-luc luciferase [1]: 2.9 nM | hGrem1-His IC50 (nM), inhibition of 100 pM hBMP4, W-20-17/BRE-luc luciferase [2]: 6 nM and 4.3 nM and 4.2 nM and 5.4 nM | hGrem1-His IC50 (nM), inhibition of 200 pM hBMP4, W-20-17/BRE-luc luciferase [2]: 10.3 nM | hGREM1-His, IC50 (M); W-20-17 cell differentiation assay (alkaline phosphatase) [3]: 4.4e-09 M
B1: recombinant human GREM1 (hGREM1-His; C-terminal 10His tagged, R&D, #5190-GR) (ligand)
chain: KKKGSQGAIPPPDKAQHNDSEQTQSPQQPGSRNRGRGQGRGTAMPGEEVLESSQEALHVTERKYLKRDWCKTQPLKQTIHEEGCNSRTIINRFCYGQCNSFYIPRHIRKEEGSFQSCSFCKPKKFTTMMVTLNCPELQPPTKKKRVTRVKQCRCISIDLDHHHHHHHHHH
